Data reported in patent US6541002.

Target: Vpr-Gal4AD chimeric protein (UniProt P12520)

Substance: UDG-Gal4BD chimeric protein UDG F225G
- beta-galactosidase activity, liquid culture of double transformant yeast, relative to wild type UDG-Gal4BD: exhibited only 7% of the ability to interact with Vpr-Gal4AD chimeric protein

Substance: UDG-Gal4BD chimeric protein UDG W222G
- beta-galactosidase activity, liquid culture of double transformant yeast, relative to wild type UDG-Gal4BD: exhibited less than half (43%) of the ability to interact with Vpr-Gal4AD chimeric protein
